Measured values: US20190315838A1 (MIT, published 2019)

B1: fusion loop targeting pan-flavivirus antibody 4G2 (antibody, V domains shown)
VH: EVQLQQSGPELVKPGTSVKISCKTSGYTFTEYTIHWVKQSHGKSLAWIGGIDPNSGGTNYSPNFKGKATLTVDKSSSTAYMDLRSLSSEDSAVYFCARIYHYDGYFDVWGAGTAVTVSS
VL: DIKMTQSPSSMYASLGERVTITCKASQDINSYLTWFQQKPGKSPKTLIYRANRLIDGVPSRFSGSGSGQDYSLTISSLDYEDMGIYYCLQYDEFPPTFGGGTKLEIKR
B2: mAb 3 (antibody, V domains shown)
VH: EVQLVESGGGLVQPGGSLRLSCSASGFTFSTYSMHWVRQAPGKGLEYVSAITGEGDSAFYADSVKGRFTISRDNSKNTLYFEMNSLRPEDTAVYYCVGGYSNFYYYYTMDVWGQGTTVTVSS
VL: EIVLTQSPATLSLSPGERATLSCRASQSISTFLAWYQHKPGQAPRLLIYDASTRATGVPARFSGSRSGTDFTLTISTLEPEDFAVYYCQQRYNWPPYTFGQGTKVEIK
notes: also called VH.4 / VL.3
B3: mAb 6 (antibody, V domains shown)
VH: EVQLVESGGGLVQPGGSLRLSCSASGFSFSTYSMHWVRQAPGKGLEYVSAITGEGDSAFYADSVKGRFTISRDNSKNTLYFEMNSLRPEDTAVYYCVGGYSNFYYYYTMDAWGQGTSVTVSS
VL: EIVLTQSPASLSLSPGERATLSCRATQSISTFLAWYQHKPGQAPRLLIYDASTRASGVPARFSGSRSGTDFTLTISSLEPEDFAVYYCQQRYNWPPYSFGQGTKVEIK
notes: also called VH.3 / VL.1
B4: mAb 7 (antibody, V domains shown)
VH: EVQLLESGGGLVQPGGSLRLSCAASGFSFSTYSMHWVRQAPGKGLEWVSAISGEGDSAYYADSVKGRFEISRDNSKNTLYLQMNKVRAEDTAVYYCVGGYSNFYYYYTMDAWGQGTMVTVSS
VL: DIVMTQSPASLSLSPGERATLSCRATQSIVTFLAWYQQKPGQAPRLLIYDASTNASGIPARFSGSRSGTDFTLTITRLEPEDFAVYYCQQRYNWPPYSFGQGTKLEIK
notes: also called VH.2 / VL.4
B5: mAb 8 (antibody, V domains shown)
VH: EVQLLESGGGLVQPGGSLRLSCAASGFSFSTYSMHWVRQAPGKGLEWVSAISGEGDSAYYADSVKGRFTISRDNSKNTLYLQMNKVRAEDTAVYYCVGGYSNFYYYYTMDAWGQGTMVTVSS
VL: DIVMTQSPASLSLSPGERATLSCRATQSISTFLAWYQQKPGQAPRLLIYDASTRASGIPARFSGSRSGTDFTLTITRLEPEDFAVYYCQQRYNWPPYSFGQGTKLEIK
notes: also called VH.1 / VL.2

Experiments:
[1] = target: T1, Zika virus envelope protein, strain ILM (Brazil Paraiba 2015) (Zika virus strain ILM (Brazil Paraiba …))
T1 construct: also called Zika strain ILM; Zika virus EP

[2] = target: T2, Zika virus envelope protein, strain MR766-NIID (Uganda 1947) (Zika virus strain MR766-NIID (Uganda …, UniProt Q32ZE1 291-790))
[3] = target: T2, Zika virus envelope protein, strain …; remark: listed apart in the source
[4] = target: T1, Zika virus envelope protein, strain ILM …; test: cell-based or functional assay
[5] = target: Zika virus envelope protein, strain H/PF/2013 (French Polynesia 2013) (Zika virus strain H/PF/2013 (French …, UniProt A0A024B7W1 291-794)); test: cell-based or functional assay

Binder	Kd [1] [µg/mL]	EC50 (read off the curve) [2] [µg/mL]	Kd [3] [µg/mL]	PRNT50 [4] [µg/mL]	ADE, viral titers at peak enhancement in THP1.2S cells [5] [fold]	PRNT50 [5] [µg/mL]
B1	6.41	–	–	–	–	–
B2	–	~0.8	0.0248	–	–	–
B3	3.85	~0.03	–	0.0597	–	–
B4	5.21	~0.03	0.0265	–	–	–
B5	19.3	~0.03	–	5.12	≥ 3	5.09
